In the supplement of paper PMC9170038:

Tested on: MS2 coat protein
Assay: apparent KD of MS2 coat protein; designed switch direction (-1 OFF switch, 1 ON switch): -1; higher = weaker reporter binding
In short: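 For each design, the apparent KD is the median over clusters of curves fitted to normalised cluster fluorescence. Clusters held RNA switches with common flanks, transcribed on Illumina chips by stalled E. coli RNA polymerase. These were titrated with SNAP-549-labelled MS2 coat protein, doubling from 0.7 or 1.5 nM to 3 µM, without input, with 200 uM small-molecule ligand, or with an oligonucleotide input.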

[1] = Eterna round: R95, input ligand: microRNA oligo, concentration not stated
[2] = Eterna round: R95, input ligand: FMN 200 uM
[3] = Eterna round: R95, input ligand: none
[4] = input ligand: microRNA oligo, concentration not stated

CUUGUACAUGAGGAUCACCCAUGUUAGGAUAUCUCGCCGUCGGCUUGCCGACGGUAUUAGAGAAGGGACUUGGG [JL Tixe mod 6] (puzzle: Exclusion 1)
apparent KD of MS2 coat protein [1]: 50.8 nM

CUUAGGUGAGGAUAUUAGUAGUAAAUAAAUAAAAUUAUUACUGAGAAGGCACAUGAGGAUCACCCAUGUUCCUC [Salish 062 v3] (Eterna round: R97, puzzle: Exclusion 4)
apparent KD of MS2 coat protein (input ligand: FMN 200 uM): 548 nM
apparent KD of MS2 coat protein (input ligand: none): 37 nM

GUAUACGAUGAGGAUAUAUGAUAUCAAAGCAUCAUAGAAGGCAUCACAUGAGGAUCACCCAUGUGAUCUUCUUG [Mat - Exclusion 6 - JL Mod - D33] (Eterna round: R97, puzzle: Exclusion 6)
apparent KD of MS2 coat protein (input ligand: FMN 200 uM): 141 nM
apparent KD of MS2 coat protein (input ligand: none): 31.3 nM

UAUUAGCUAGGAUAUACAUGAGGAUCACCCAUGUCACGGGUCCACUCAUCCUAUGCGUGUAGAAGGAGCGACCC [JL Ceriza mod 1] (puzzle: Exclusion 3)
apparent KD of MS2 coat protein [1]: 23.6 nM

GGUCGGCGAGGAUAUACAUGAGGAUCACCCAUGUGAUAGAGUGCACGCGUACGUGUAUGUAGAAGGCGCUGACG [JL-ex3-3.29 salish99 mod] (puzzle: Exclusion 3)
apparent KD of MS2 coat protein [2]: 160 nM
apparent KD of MS2 coat protein [1]: 34.2 nM
apparent KD of MS2 coat protein [3]: 66 nM

UUUUAACAUGAGGAUCACCCAUGUGAGGAUAUCGAAAUUUAUAUUAAUAUUAUUUUUACGAGAAGGCACAUUUU [JMF 50] (puzzle: Exclusion 1)
apparent KD of MS2 coat protein [1]: 99.2 nM

UGCGGUUGAGGAUAUACGUAGAACUAGGUUCAUGUAAAACUACAUGAGGAUCACCCAUGUAGAAGGCAAUCGCU [Mat - Exclusion 2 - JL Mod - D41] (Eterna round: R97, puzzle: Exclusion 2)
apparent KD of MS2 coat protein (input ligand: FMN 200 uM): 23.9 nM
apparent KD of MS2 coat protein (input ligand: none): 20.3 nM

AAGAUACAUGAGGAUCACCCAUGUUAGGAUAUACGCAUGCAUGCAUGCAUGCAUGCAAGUAGAAGGAACCAUGC [Design #3] (Eterna round: R97, puzzle: Exclusion 1)
apparent KD of MS2 coat protein (input ligand: FMN 200 uM): 29.2 nM
apparent KD of MS2 coat protein (input ligand: none): 28.4 nM

GACCGGACGUGGUCUGGUAACAUGAGGAUCACCCAUGUAGGUCUAAGAACAAGCCUUUUGCACGCUCGUCUUAUAUU [JR_SV3TOV1_Sub061] (puzzle: Sensor v3, turn-off variant 1)
apparent KD of MS2 coat protein [2]: 64.4 nM
apparent KD of MS2 coat protein [1]: 56.5 nM
apparent KD of MS2 coat protein [3]: 88.2 nM

GUAGAGUCAGGAUAUACGAGAUCGAAAGAUCGGCGGUCUGUACAUGAGGAUCACCCAUGUAGAAGGGACUCUAC [ChP 11-04-2015 #6] (puzzle: Exclusion 2)
apparent KD of MS2 coat protein [1]: 15.3 nM

AUCAUGUAAGGAUAUCUUACAUGUGACGAAAGUCACAGUUAAGAGAAGGUACAUGAGGAUCACCCAUGUAUAAC [Ex4-3: 36] (puzzle: Exclusion 4)
apparent KD of MS2 coat protein [1]: 26.6 nM

UCACGGGACUGAGGAUAUACAUGAACCAUUUUUGUAGAAGGCAGAAUGUUAGAUCAUACACUAAACAUGAGGAUCACCCAUGUU [JR_ExcNG1_Sub025] (Eterna round: R96, puzzle: Exclusion NG 1)
apparent KD of MS2 coat protein (input ligand: FMN 200 uM): 15.1 nM
apparent KD of MS2 coat protein [4]: 18.8 nM
apparent KD of MS2 coat protein (input ligand: none): 19.7 nM

GGCGCACAUGAGGAUCACCCAUGUGAGGAUAUUAGGCGAUCGUCGAAAGACGAUAGCCUGAGAAGGCACAUGCC [Eli x1 4.19] (Eterna round: R97, puzzle: Exclusion 1)
apparent KD of MS2 coat protein (input ligand: FMN 200 uM): 154 nM
apparent KD of MS2 coat protein (input ligand: none): 33.1 nM

AAAGAAAAGAAAGGAUAUAGCGCAGAACCGCAGCUAGAAGGUUCGGUGGGUAUCCUGUAACAUGAGGAUCACCCAUGUAAAGAG [Tire] (Eterna round: R96, puzzle: Exclusion NG 1)
apparent KD of MS2 coat protein (input ligand: FMN 200 uM): 69.9 nM
apparent KD of MS2 coat protein [4]: 48.7 nM
apparent KD of MS2 coat protein (input ligand: none): 55.7 nM

CUAAAUCAUGUAGGAUAUGCGUGGCAAAGCUAUGCAGAAGGACAUGAGGAUCACCCAUGUGCUUCCGUCUGCGUACAGACGGUA [Mat - Exclusion NG 1 - Mod of JL - D21] (Eterna round: R96, puzzle: Exclusion NG 1)
apparent KD of MS2 coat protein (input ligand: FMN 200 uM): 551 nM
apparent KD of MS2 coat protein [4]: 79.2 nM
apparent KD of MS2 coat protein (input ligand: none): 110 nM

AUCAGCUCGUGAGGAUAUACAUGAGGAUCACCCAUGUGAUCAAUAGCAGCUUCGGCUGCAUUAAUGUAGAAGGCACGAGCUGAU [ENG2/5-A3] (Eterna round: R96, puzzle: Exclusion NG 2)
apparent KD of MS2 coat protein (input ligand: FMN 200 uM): 77.9 nM
apparent KD of MS2 coat protein [4]: 22.2 nM
apparent KD of MS2 coat protein (input ligand: none): 214 nM

GUGCUAUGAGGAUAUACGUUGGUGGGCAUCUGUGUGCUCCUACAUGAGGAUCACCCAUGUAGAAGGCAUGUCAC [LRO-Excl2-20] (Eterna round: R96, puzzle: Exclusion 2)
apparent KD of MS2 coat protein (input ligand: FMN 200 uM): 22.9 nM
apparent KD of MS2 coat protein [4]: 9.33 nM
apparent KD of MS2 coat protein (input ligand: none): 14.1 nM

GUGUAGAUAGGAUAUGCUUUGAGCUUAUGAGAGUAUGCUCGACAUGAGGAUCACCCAUGUAGAAGGGUUUACAC [LRO-Excl2-04] (puzzle: Exclusion 2)
apparent KD of MS2 coat protein [1]: 68.5 nM

GGAUCUACUGAGGAUAUUAUAUCACCCGACUGAUAAGAAGGCAGUACAUGAGGAUCACCCAUGUGGGUAGCCAU [Polaris8] (Eterna round: R97, puzzle: Exclusion 6)
apparent KD of MS2 coat protein (input ligand: FMN 200 uM): 64.3 nM
apparent KD of MS2 coat protein (input ligand: none): 34.8 nM

AGCGCUUACGUAGGAUAUGCAUGAGGAUCACCCAUGCAACCACAUUUAACAUGAGGAUCACCCAUGUAGAAGGACGGGUGCGCA [pwkr exNG2 2xF5 1xFMN.2] (Eterna round: R96, puzzle: Exclusion NG 2)
apparent KD of MS2 coat protein (input ligand: FMN 200 uM): 67.8 nM
apparent KD of MS2 coat protein [4]: 20.4 nM
apparent KD of MS2 coat protein (input ligand: none): 27.9 nM

GCCGGGCGAGGAUAUACAUGGCGGGCGAAAGCCCGCGAUCUACAUGAGGAUCACCCAUGUAGAAGGCGCCCGGC [2nd Free energy optimized design] (Eterna round: R97, puzzle: Exclusion 2)
apparent KD of MS2 coat protein (input ligand: FMN 200 uM): 567 nM
apparent KD of MS2 coat protein (input ligand: none): 49.3 nM

AAUAUACAUGUAGGAUAUCUGCACGAUUAGUGCAGAGAAGGACAUGAGGAUCACCCAUGUAAUUAAGAUCAAUUAUUAAAUAUU [ENG1/3-B1] (Eterna round: R96, puzzle: Exclusion NG 1)
apparent KD of MS2 coat protein (input ligand: FMN 200 uM): 327 nM
apparent KD of MS2 coat protein [4]: 46.9 nM
apparent KD of MS2 coat protein (input ligand: none): 46.6 nM

UUUUCCAGAGGAUAUGCGAAUAAAUAAAACUUUUUUUUUUAACAUGAGGAUCACCCAUGUAGAAGGCUGCUUUU [Ex2 #27] (Eterna round: R97, puzzle: Exclusion 2)
apparent KD of MS2 coat protein (input ligand: FMN 200 uM): 27.1 nM
apparent KD of MS2 coat protein (input ligand: none): 30.1 nM

GGUCCACAUGAGGAUCACCCAUGUUAGGAUAUCUCGCCCGAGUCCAUAUGGGCCGGGCAGAGAAGGAAUGUGAA [Vevequbi] (puzzle: Exclusion 1)
apparent KD of MS2 coat protein [1]: 17.4 nM

CUGUGCACGCUGCGGUCCUACAUGAGGAUCACCCAUGUGGUCUGGUGGCGUGGGUCGCCGGACUUGGCUCGUCUUGG [salish99_S_TOV1_R5_025] (Eterna round: R97, puzzle: Sensor, turn-off variant 1)
apparent KD of MS2 coat protein (input ligand: FMN 200 uM): 15.3 nM
apparent KD of MS2 coat protein (input ligand: none): 15.9 nM

CCAGAGUGAGGAUAUGCAUAAAGGUGCUGUCCCGUGGCUUGACAUGAGGAUCACCCAUGUAGAAGGUGCGUUGU [Raonra] (puzzle: Exclusion 2)
apparent KD of MS2 coat protein [1]: 38.7 nM

AAAUUGUGAGGAUAUCCAAUAUAUGACAUGAGGAUCACCCAUGUUUCCACUCGUACCUCCGGAGAAGGCACUGCAA [Ex5 #39] (Eterna round: R97, puzzle: Exclusion 5)
apparent KD of MS2 coat protein (input ligand: FMN 200 uM): 22.3 nM
apparent KD of MS2 coat protein (input ligand: none): 27.2 nM

AGCGCCAUCGUGAGAUGGCGUAUUACAUGAGGAUCACCCAUGUAGGAUAUCGAUUGCUUUGCAGUCGAGAAGGGCAUGUCCUAG [JL ENG3 3.80 Mod H] (Eterna round: R96, puzzle: Exclusion NG 3)
apparent KD of MS2 coat protein [4]: 25 nM

GACCUGUGAGGAUAUUAUUAAAGGCCAAGUUAGGCCUUAAUUGAGAAGGCACAUGAGGAUCACCCAUGUUUGAC [Eternabot (L2) Solution 55] (Eterna round: R97, puzzle: Exclusion 4)
apparent KD of MS2 coat protein (input ligand: FMN 200 uM): 90.3 nM
apparent KD of MS2 coat protein (input ligand: none): 22.3 nM

UUCACAUGGACAUAAGAUCACAUGAGGAUCACCCAUGUGAAUAACAAGCUUUUUGUUCGUCUUAUGUCCAAUAAUAA [Stov1/14-B1] (Eterna round: R97, puzzle: Sensor, turn-off variant 1)
apparent KD of MS2 coat protein (input ligand: FMN 200 uM): 12.3 nM
apparent KD of MS2 coat protein (input ligand: none): 12.6 nM

ACCCGCACAAGCACCAGAGACAUGAGGAUCACCCAUGUAUAGUCGCACUAGGGUCUCUCUAGUCUAGCCGUUCGUCA [Eternabot (Original) Solution 44] (Eterna round: R97, puzzle: Sensor, turn-off variant 1)
apparent KD of MS2 coat protein (input ligand: FMN 200 uM): 90.4 nM
apparent KD of MS2 coat protein (input ligand: none): 213 nM

AAAAUGUCAGGAUAUUGUUAGUUUAGUUGUUUGUAUUAGUUCGAGAAGGGACAUGAGGAUCACCCAUGUUAAAA [Ex4 #67] (Eterna round: R97, puzzle: Exclusion 4)
apparent KD of MS2 coat protein (input ligand: FMN 200 uM): 45.7 nM
apparent KD of MS2 coat protein (input ligand: none): 29.9 nM

UACUUCCGAGGAUAUACAUGAGGAUCACCCAUGUGCUUCAGCAUUGAAAGAUGCAUGGGUAGAAGGCGGUAGUU [LRO-Excl3-18] (puzzle: Exclusion 3)
apparent KD of MS2 coat protein [2]: 253 nM
apparent KD of MS2 coat protein [1]: 297 nM
apparent KD of MS2 coat protein [3]: 171 nM

AAAUAGAAUGAGGAUAUCGUAUUGUAUUUAGUGCGAGAAGGCAUUACAUGAGGAUCACCCAUGUUUUGUUGGGA [JR_Ex6_Sub003] (Eterna round: R97, puzzle: Exclusion 6)
apparent KD of MS2 coat protein (input ligand: FMN 200 uM): 89.1 nM
apparent KD of MS2 coat protein (input ligand: none): 32.3 nM

AAAACACAUGAGGAUCACCCAUGUGAGGAUAUGUUAAUUUCGGCCAAAGCCGAAAUUAACAGAAGGCACAUAAA [JR_Exclusion1_Sub019] (puzzle: Exclusion 1)
apparent KD of MS2 coat protein [1]: 46 nM

GACAGGCAGGCAGGAUAUGCCCGUGUGGAUGGUGUAGAAGGGCUAGCGGGUCACUUGAGGAUCACCCAAGUGGAGGGUGGCCUA [Mutated MS2 EX1.28] (Eterna round: R96, puzzle: Exclusion NG 1)
apparent KD of MS2 coat protein (input ligand: FMN 200 uM): 51.3 nM
apparent KD of MS2 coat protein [4]: 31.2 nM
apparent KD of MS2 coat protein (input ligand: none): 38.2 nM
